Laboratory results published in the supplement of paper PMC10126150.
± gives the standard deviation of the averaged measurements.

test system: ATP; test: switch fluorescence ratio, 500 uM ATP over buffer (Cy3 cluster intensity, sum of 5 cycles each) (fold (ratio)); higher = stronger signal-on switching upon ATP binding; sequences stand for … in TCGTCGGCAGCGTCAGATGTGTATAAGAGACAGTTTTTTTTTTTTTTTTTTTTTTTTT…TC; conditions: aptamer strand: ATP DNA aptamer (quencher-CACCTGGGGGAGTATTGCGGAGGAAGG + anchor), 100 nM annealed; ATP concentration: 500 uM
Outline: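 Five buffer/ATP imaging cycles were run on Cy3-labelled switching-strand clusters on a modified Illumina MiSeq flow-cell, with NaOH stripping and re-annealing between cycles. In each cycle, clusters annealed to 100 nM quencher-labelled ATP aptamer were imaged in selection buffer, then after 15 min with 500 uM ATP at 22 °C. Per cluster, the fluorescence ratio is summed target-cycle over summed buffer-cycle Cy3 intensity, averaged per switch-domain sequence. Only clusters within 100-1000 RFU were kept.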
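Also: ATP exposure 15 min at 22 °C before imaging.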

Sequence | switch fluorescence ratio
ACGGCGAGGT | 1.03 ± 0.032
GCGGCGGAAG | 1.025 ± 0.0042
TGAGTTAGAT | 1 ± 0.011
ACAGCTGCTT | 0.981 ± 0.028
TTTACGGTAA | 1.15 ± 0.019
AAAAGGGTA | 0.957 ± 0.048
TATATTGCGT | 0.9711 ± 0.0073
ACTTGGGCAT | 0.993 ± 0.028
TATGCGCCGT | 0.984 ± 0.026
AATCGCACCA | 1.11 ± 0.025
TATTTAGCCC | 1.047 ± 0.0069
CGTTTGTTCT | 1.03 ± 0.061
GACGGTAAAA | 1.04 ± 0.015
ACCAGGGTGG | 1.03 ± 0.068
AGAACTTTTA | 0.998 ± 0.015
TTTATTACGC | 0.999 ± 0.053
GGTCGGGGTG | 1.09 ± 0.069
GGCAGAAAAA | 0.9949 ± 0.0018
GGGTAAGGGA | 0.961 ± 0.013
CAACTCAGTA | 0.988 ± 0.016
TGTTACAGAG | 1.01 ± 0.052
AATTGATTTT | 1.01 ± 0.03
GAAGTTTGAT | 0.9867 ± 0.0011
GAATCGGCAT | 1.02 ± 0.039
AGTTTGTAGT | 1 ± 0.011

Sequence | switch fluorescence ratio
CGTACCGGTC | 1.04 ± 0.079
AGCGAAGCTG | 1.01 ± 0.011
TCTGAGACGC | 1.05 ± 0.019
CAAGCGACGG | 1.03 ± 0.022
GGTCTGGGAG | 1 ± 0.023
TTGCTGGGAT | 1.02 ± 0.012
GAAGTAGTGG | 1.01 ± 0.014
TTGTCTAGGT | 1.01 ± 0.013
AGTTGCGATG | 0.985 ± 0.014
TATTCCGGCC | 1.05 ± 0.058
GTTAGAGCCG | 1.09 ± 0.062
CTCCTTTATT | 1.04 ± 0.037
AGAGTAGTTA | 0.9737 ± 0.0036
TCTCTAGCTG | 1.05 ± 0.041
TGAAATTGTT | 1 ± 0.045
GGTATATCTG | 1.01 ± 0.039
TTTTTCCGCG | 1.128 ± 0.0084
GGGGGGGG | 0.994 ± 0.043
ACGTTATAAG | 1.1 ± 0.011
CTTTAATGTT | 0.988 ± 0.037
GGTCGTTTTG | 0.991 ± 0.025
GACCATTTAA | 1.023 ± 0.0027
ATTTCTCAAT | 1.01 ± 0.03
TTATTACGGA | 1.03 ± 0.013
CGAGTGGGGG | 0.987 ± 0.029

Sequence | switch fluorescence ratio
CCGTTTAGGG | 0.999 ± 0.016
TTGGGCTGGT | 0.962 ± 0.035
GCGATGAATC | 1.04 ± 0.04
ATTGCGGGGG | 0.994 ± 0.019
TGCTAAAGGG | 0.984 ± 0.036
TGACATGTAG | 1.01 ± 0.052
AAGATTGTAA | 0.996 ± 0.03
TGGGGGGCCT | 0.991 ± 0.02
GCTGATAATG | 0.978 ± 0.014
TAAGGTTGAC | 0.9953 ± 0.0035
GGCCTCAAGG | 1.06 ± 0.04
TTTTCGATAG | 1 ± 0.013
GAGGCAAGGT | 1.65 ± 0.092
TTCTTTTATC | 0.983 ± 0.03
TCTAAAGGAT | 1.006 ± 0.004
TTTTGGAAGG | 1.02 ± 0.0083
GCTGGTAGTT | 0.995 ± 0.028
CGTATGACTA | 0.984 ± 0.05
TTCCTGGGTT | 1.002 ± 0.0097
GGTGTTAGTG | 0.977 ± 0.023
GAGGGGTACT | 1.025 ± 0.0042
CTGCGTCTAT | 1.08 ± 0.025
CATGATTATG | 0.972 ± 0.012
CAGGTAGTGT | 1.02 ± 0.024
AGGGAGCAGA | 0.9948 ± 0.0059

Sequence | switch fluorescence ratio
GGGGTGGTCG | 0.986 ± 0.083
CAATGTGGGA | 1.01 ± 0.021
TTCTGAGTCT | 1.02 ± 0.041
CGCGAACATG | 0.984 ± 0.049
CGGAGAGTAG | 1.03 ± 0.018
TTTAGAGTGC | 1 ± 0.093
TTTTTCCAAG | 1.02 ± 0.011
CGCTGGGGGA | 1.055 ± 0.0022
GTCAGAGTCT | 1.05 ± 0.021
TCAAGTATCT | 1.02 ± 0.041
ACTTATCTAC | 1.05 ± 0.069
GGGAAAAAGA | 1.03 ± 0.012
TCCCATCTGT | 0.984 ± 0.031
TGCGGATGGT | 0.98 ± 0.016
TAGCATTCAT | 0.994 ± 0.0072
ATCAAAGGTT | 1.03 ± 0.051
CTTAGAATTG | 1.02 ± 0.012
TTTAAGACGG | 0.98439 ± 0.00032
CGAGTTGATC | 0.973 ± 0.028
GGGGGGGTC | 0.979 ± 0.019
AGCTTGTGTG | 1.01 ± 0.061
TGGTTGTTTT | 0.99 ± 0.018
GACTGTTATG | 0.989 ± 0.024
TGGTTGGGGT | 1.01 ± 0.054
TTTTTCTAAT | 1.03 ± 0.071
